Assay results taken from PMC12485048.

Target: Ca2+/calmodulin-dependent protein kinase II (CaMKII) (mouse (endogenous in striatum)) (UniProt P28652)
Experiment: co-IP; endogenous proteins in mouse striatum lysate (20 mM Tris-HCl pH 7.4, 50 mM NaCl, 0.5% NP-40, 10 mM HEPES, 0.5 mM EDTA); 2 μg primary antibody on Protein A/G or Protein G magnetic beads, lysate at 4 °C overnight; western blot; for CaMKII–PPP1CC, WT and Sh3rf2 KO striatum compared

Chain of UniProt P28652 (P28652 whole entry): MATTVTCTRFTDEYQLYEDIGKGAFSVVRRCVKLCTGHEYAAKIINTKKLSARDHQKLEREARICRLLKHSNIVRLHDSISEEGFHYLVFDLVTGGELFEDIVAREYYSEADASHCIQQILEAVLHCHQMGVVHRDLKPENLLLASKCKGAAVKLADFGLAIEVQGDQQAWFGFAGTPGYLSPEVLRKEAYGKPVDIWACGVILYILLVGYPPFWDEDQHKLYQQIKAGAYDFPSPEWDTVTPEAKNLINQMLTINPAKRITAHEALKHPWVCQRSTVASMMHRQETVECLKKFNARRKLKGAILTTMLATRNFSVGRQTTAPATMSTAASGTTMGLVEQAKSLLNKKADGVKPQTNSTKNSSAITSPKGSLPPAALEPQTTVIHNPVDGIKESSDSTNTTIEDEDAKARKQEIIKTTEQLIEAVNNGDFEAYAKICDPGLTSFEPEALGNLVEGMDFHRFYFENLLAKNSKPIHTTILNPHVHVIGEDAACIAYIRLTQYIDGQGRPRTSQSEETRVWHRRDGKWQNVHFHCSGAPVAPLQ

reduction of CaMKII–PPP1CC co-precipitate in Sh3rf2 KO against WT striatum: 80%
Substance: PP1 catalytic subunit gamma (PPP1CC) (from UniProt P63087 1-323) (enzyme)
